Residues, ends and D or L forms follow the SMILES beside them. *: point of attachment. Cbz = O=C(OCc1ccccc1)*
Key:
Type in all cases: cell-based
TRIM72 promoter [1] = experiment: TRIM72 promoter-luciferase activity during muscle differentiation, pharmacological inhibitors; settings: FIG. 14A
Experimental: (§1) A. CEMI promoter-luciferase fused gene having E2 and E3 was expressed in C2C12 myoblasts for 24 hours and muscle differentiation into myotubes was induced for 24 hours. While inducing muscle differentiation, PI3K inhibitor (LY294002, 10 μM), mTOR inhibitor (rapamycin, 100 nM), GSK3β inhibitor (LiCl, 5 mM) and MAPK inhibitor (PD98059, 10 μM) were treated and luciferase activity was measured. B. CEMI promoter-luciferase fused gene having E2 and E3 and MyoD gene were expressed in C2C12 myoblasts for 24 hours. After treating with various agents for 24 hours, luciferase activity was measured. C. […] After inducing muscle differentiation into myotubes for 24 hours, luciferase activity was measured. […] After inducing differentiation for 24 hours, luciferase activity was measured.
(§2) IRS-1 constructs (full-length, 1-3729; PH-PTB domain, 1-900; Mid-region, 880-2608; Rear-region, 2581-3729) and TRIM72 cDNA constructs (full-length, 1-1431; ΔRING, 181-1431; coiled-coil, 367-1020; CCSPRY, 367-1431; SPRY, 687-1431; Δcoiled-coil) were generated by PCR using the primers described in Table 1 and cloned into pCMV-Tag2B vector and pCMV-3Tag4a vector (Stratagene), respectively. […] Luciferase activity in cell lysates was measured by using the luciferase assay system (Promega) in a Luminoskan Ascent (Thermo Labsystem). […]

TRIM72 promoter [2] = experiment: MyoD-dependent TRIM72 promoter-luciferase activity in myoblasts, pharmacological inhibitors; settings: agents treated 24 hours, FIG. 14B
Experimental: as §1, §2

IRS-1 [3] = experiment: IRS-1 expression in 293 cells co-transfected with TRIM72; settings: IRS-1 and TRIM72 transfected, FIG. 11A
Experimental: (§3) A. IRS-1 (6 μg) and TRIM72 (2 μg) were transfected into HEK 293 cells for 30 hours and expression of IRS-1 and TRIM72 was investigated after treating with the proteosomal degradation inhibitor MG132 for 10 hours. B. IRS-1 (3 μg) and TRIM72 at various concentrations (0, 0.5, 1, 2 μg) were transfected into 293 cells for 30 hours and expression of IRS-1 was investigated. C. HA-TRIM72 (or HA-TRIM72 C14A), Flag-IRS-1 and His-ubiquitin were transfected into 293 cells for 30 hours and MG132 was treated for 10 hours. Ubiquitination of IRS-1 was identified by immunoblotting using His after immunoprecipitation with Flag antibody. Red brace denotes ubiquitination of IRS-1.
as §2
(§4) Western blotting and immunostaining were performed as described in Kim, K. B. et al. Proteomics 6, 2444-53 (2006). […] The immunoprecipitates were analyzed by Western blotting.

M-Cadherin = M-Cadherin expression after TRIM72 overexpression or Si-RNA; settings: FIGS. 12C-12E
Text: (§5) An adenoviral vector with TRIM72 was constructed using ViraPower™ Adenoviral Expression System (Invitrogen) under control of the cytomegalovirus (CMV). Full-length-TRIM72 ORF (open reading frame) was cloned into an entry vector pENTR (Invitrogen) using the restriction enzyme sites (SalI and NotI) and homologously recombined into a destination vector pAd/CMV/V5-DEST (Invitrogen) which has the adenoviral genome and CMV promotor. The cloned TRIM72-adenoviral genome was linearlized by cutting with PacI restriction enzyme and transfected into 293A cells using a transfection agent (GenePorter II). After 10-15 days of the transfection, the supernatant comprising adenovirus was re-transfected into 293A cells to obtain the amplified adenovirus. The obtained adenovirus supernatant was purified into adenovirus particles using cessium chlororide. C2C12 myoblasts grown in 6 well plates were infected by adenovirus with the dosage of 4×10^10 VP/ml.
(§6) SiRNA oligomer targeting TRIM72 was designed from Dharmacon. Target sequence of TRIM72 is 5′-[…]-3′. The cell cultures were transfected with control RNAi and TRIM72 specific siRNA using transfection reagent (TransIT®-TKO, Mirus), which was prepared according manufacturer's instruction. […]
as §4

IRS-1 [4] = experiment: IRS-1 ubiquitination in 293 cells; settings: TRIM72, IRS-1 and ubiquitin co-expressed in 293 cells, MG132 treated, FIG. 11C
Experimental: as §3
293T cells are transfected with pCMV-HA-TRIM72 (1 μg) or pCMV-HA-TRIM72 C14A (1 μg) and pCMV-Flag-IRS-1 (3 μg) and His-ubiquitin (3 μg) using Polyfect (Qiagen). Twenty-four hours after transfection, cells were treated with MG132 (5 μM) for 12 h. Cell lysates were immunoprecipitated with anti-Flag for 2 h. The immunoprecipitates were analyzed by Western blotting against anti-His antibody.

ERK1/2 = experiment: IGF-1-induced ERK1/2 phosphorylation after TRIM72 overexpression or knockdown; settings: myoblasts (overexpression) / myotubes (knockdown), FIG. 7A
Text: as §5, §6, §4

IRS-1 [5] = experiment: IGF-I-induced tyrosine phosphorylation of IRS-1 (immunoprecipitation); settings: IGF-I stimulation, FIG. 8
Text: as §5, §6, §4

PI3K = experiment: IGF-1-induced PI3K activation (PI(3)K activity of anti-p85 immunoprecipitates); settings: FIG. 7B
Text: as §5
as §6, with “instruction. Transfected cells were then transferred to media containing 2% horse serum at least for 48 h.” for “instruction.”

C2C12 myoblasts [6] = experiment: Muscle differentiation of C2C12 myoblasts transfected with wild type or mutant TRIM72 genes; settings: genes expressed in C2C12 myoblasts, differentiation induced, FIG. 10B
Experimental: (§7) C2C12 cells were purchased from ATCC and grown in Dulbecco's modified Eagle's medium (DMEM) supplemented with 2% penicillin/streptomycin (WelGene) and 10% fetal bovine serum (WelGene) in a 5% CO2 incubator at 37° C. Confluent C2C12 myoblasts were differentiated into myotubes by incubation with DMEM supplemented with the same antibiotics and 2% horse serum. Every 48 hours, the myotubes were fed with fresh DMEM containing 2% horse serum. Male C57BL/Ksj mice were maintained on a controlled lighting schedule, with a 12-h dark period. Twenty-week-old mice were used in all of the experiments in this study.
as §2, with “respectively. Alternatively, TRIM72 and TRIM72 C14A were generated by PCR reaction using the primers described in Table 1 and cloned into pHM6-HA vector, pCMV-Tag2B or pHM6 vector (Roche).” for “respectively.”

AKT = experiment: IGF-1-induced AKT phosphorylation after TRIM72 overexpression or knockdown; settings: myoblasts (overexpression) / myotubes (knockdown), FIG. 7A
Text: as §5, §6, §4

IRS-1 with PI3K = experiment: Molecular association of IRS-1 with PI3K after IGF-I stimulation (immunoprecipitation); settings: FIG. 8
Text: as §5, §6, §4

C2C12 myoblasts [7] = experiment: Muscle differentiation (myogenesis) after TRIM72 overexpression by adenoviral vector or TRIM72 interference by SiRNA
Experimental: as §7, §5
SiRNA oligomer targeting TRIM72 was designed from Dharmacon. Target sequence of TRIM72 is 5′-[…]-3′. The cell cultures were transfected with control RNAi and TRIM72 specific siRNA using transfection reagent (TransIT®-TKO, Mirus), which was prepared according manufacturer's instruction. Transfected cells were then transferred to media containing 2% horse serum at least for 48 h.
Western blotting and immunostaining were performed as described in Kim, K. B. et al. Proteomics 6, 2444-53 (2006). For immunoprecipitation, cells were lysed in buffer containing 20 mM Tris-HCl pH 7.4, 137 mM NaCl, 1 mM MgCl2, 1 mM CaCl2, 20 mM NaF, 10 mM Na4P2O7, 1% NP-40, 1 mM Na3VO4, 1 mM PMSF and protease inhibitor cocktail (Roche). The whole cell lysates (600 μg protein) were incubated with specific antibodies for 90 min and then with 50 μl of Protein A-sepharose or G-agarose bead (50%) slurry for 1 h. The immunoprecipitates were analyzed by Western blotting.

IGFR = experiment: IGF-I-induced tyrosine phosphorylation of IGFR (immunoprecipitation); settings: FIG. 8
Text: as §5, §6, §4

O=c1cc(N2CCOCC2)oc2c(-c3ccccc3)cccc12 [LY294002]
decrease of TRIM72 transcription in IGF-I induced muscle differentiation (TRIM72 promoter [1]; LY294002 10 μM): 4 times

[Cl-].[Li+] [LiCl]
change of TRIM72 transcription in IGF-I induced muscle differentiation (TRIM72 promoter [1]; rapamycin 100 nM, LiCl 5 mM): no change | MyoD-dependent TRIM72 transcription in myoblasts (TRIM72 promoter [2]): not affected

CC(C)C[C@@H](C=O)NC(=O)[C@H](CC(C)C)NC(=O)[C@H](CC(C)C)NC(=O)OCc1ccccc1 [MG132, reference compound] (Cbz-Leu-Leu-Leu-aldehyde)
expression of IRS-1 (IRS-1 [3]): expressed normally

B1: TRIM72: TRIM72 protein (SEQ ID NO: 1 or 2) or its gene, overexpressed via adenoviral vector or plasmid; negative regulator of muscle differentiation (protein)
chain: MSAAPGLLHQELSCPLCLQLFDAPVTAECGHSFCRACLGRVAGEPAADGTVLCPCCQAPTRPQALSTNLQLARLVEGLAQVPQGHCEEHLDPLSIYCEQDRALVCGVCASLGSHRGHRLLPAAEAHARLKTQLPQQKLQLQEACMRKEKSVAVLEHQLVEVEETVRQFRGAVGEQLGKMRVFLAALEGSLDCEAERVRGEAGVALRRELGSLNSYLEQLRQMEKVLEEVADKPQTEFLMKYCLVTSRLQKILAESPPPARLDIQLPIISDDFKFQVWRKMFRALMPALEELTFDPSSAHPSLVVSSSGRRVECSEQKAPPAGEDPRQFDKAVAVVAHQQLSEGEHYWEVDVGDKPRWALGVIAAEAPRRGRLHAVPSQGLWLLGLREGKILEAHVEAKEPRALRSPERRPTRIGLYLSFGDGVLSFYDASDADALVPLFAFHERLPRPVYPFFDVCWHDKGKNAQPLLLVGPEGAEA
modifications: left off: small tags and cut ends
notes: negative regulator of muscle differentiation
expression of M-Cadherin (M-Cadherin): decreased | IRS-1 ubiquitination (IRS-1 [4]): increased | IGF-1-induced ERK1/2 phosphorylation (ERK1/2): not changed | tyrosine phosphorylation of IRS-1 (IRS-1 [5]): decreased | IGF-1-induced PI3K activation (PI3K): abrogated | muscle differentiation (C2C12 myoblasts [6]): inhibited | IGF-1-induced AKT phosphorylation (AKT): inhibited | molecular association of IRS-1 with PI3K after IGF-I stimulation (IRS-1 with PI3K): weakened | expression of IRS-1 (IRS-1 [3]): decreased | myogenesis (C2C12 myoblasts [7]; C2C12, FIG. 6A (H&E staining)): prevented | myogenesis as determined by expression level of myogenesis marker proteins (myogenin, caveolin-3 and MyHC) and nucleus number per myotubes (C2C12 myoblasts [7]; C2C12, FIGS. 6C and 6D): completely prevented | amount of MyHC (C2C12 myoblasts [7]; C2C12, MyHC staining, FIG. 6B): decreased | fusion between cells (C2C12 myoblasts [7]; overexpression in myoblasts, FIG. 6): completely inhibits | tyrosine phosphorylation of IGFR induced by IGF-I (IGFR): not changed

B2: C14A TRIM72: TRIM72 mutant protein in which the 14th amino acid is substituted from cystine to alanine (protein, listed as Mus musculus)
chain: MSAAPGLLRQELSAPLCLQLFDAPVTAECGHSFCRACLIRVAGEPAADGTVACPCCQAPTRPQALSTNLQLSRLVEGLAQVPQGHCEEHLDPLSIYCEQDRTLVCGVCASLGSHRGHRLLPAAEAQARLKTQLPQQKMQLQEACMRKEKTVAVLEHQLVEVEETVRQFRGAVGEQLGKMRMFLAALESSLDREAERVRGDAGVALRRELSSLNSYLEQLRQMEKVLEEVADKPQTEFLMKFCLVTSRLQKILSESPPPARLDIQLPVISDDFKFQVWKKMFRALMPALEELTFDPSSAHPSLVVSSSGRRVECSDQKAPPAGEDTRQFDKAVAVVAQQLLSQGEHYWEVEVGDKPRWALGVMAADASRRGRLHAVPSQGLWLLGLRDGKILEAHVEAKEPRALRTPERPPARIGLYLSFADGVLAFYDASNPDVLTPIFSFHERLPGPVYPIFDVCWHDKGKNAQPLLLVGPEQEQA
modifications: or SEQ ID NO 2
notes: TRIM72 mutant protein in which the 14th amino acid is substituted from cystine to alanine
IRS-1 ubiquitination (IRS-1 [4]): completely inhibited | muscle differentiation (C2C12 myoblasts [6]): enhanced

Source: patent US8383602B2, “Use of TRIM72 as a target for muscle and heart enhancer” (Korea University Industrial & Academic Collaborative …, priority 2007, dated 2013)
